This test addresses anti-SPAPP monoclonal antibody CM61. The experiment in a line: competition EIA: SPAPP in 83% human plasma competes with plate-coated SPAPP for 10 ng/ml CM61.

Ends that are not written are not given here.

B1: amyloid precursor protein signal peptide (SPAPP), …-COOH (peptide)
peptide: MLPGLALLLLAAWTARA-OH
Regarding B1, the lowest antigen concentration detectable by competition is more than 200 pg/mL.

The values above are taken from patent US20140072592A1.
